Measured values taken from patent US20060019338A1.

Tests used:
[1] = molecular target: squirrel monkey prokineticin receptor 2 (PKR2) (squirrel monkey); assay: cell-based or functional assay
[2] = molecular target: rhesus monkey prokineticin receptor 1 (PKR1) (rhesus monkey); assay: cell-based or functional assay

calcium mobilization (aequorin luminescence) EC50 [1] [nM]	calcium mobilization (aequorin luminescence) EC50 [2] [nM]	Substance
10	–	recombinant human PK1 (from UniProt P58294 20-105) (ligand)
–	10	recombinant human PK2 (from UniProt Q9HC23 28-129) (ligand)
